The assay deals with T1, His6–GFP–POU2F3 (UniProt Q9UKI9 1-436).
T1 sequence (looked up): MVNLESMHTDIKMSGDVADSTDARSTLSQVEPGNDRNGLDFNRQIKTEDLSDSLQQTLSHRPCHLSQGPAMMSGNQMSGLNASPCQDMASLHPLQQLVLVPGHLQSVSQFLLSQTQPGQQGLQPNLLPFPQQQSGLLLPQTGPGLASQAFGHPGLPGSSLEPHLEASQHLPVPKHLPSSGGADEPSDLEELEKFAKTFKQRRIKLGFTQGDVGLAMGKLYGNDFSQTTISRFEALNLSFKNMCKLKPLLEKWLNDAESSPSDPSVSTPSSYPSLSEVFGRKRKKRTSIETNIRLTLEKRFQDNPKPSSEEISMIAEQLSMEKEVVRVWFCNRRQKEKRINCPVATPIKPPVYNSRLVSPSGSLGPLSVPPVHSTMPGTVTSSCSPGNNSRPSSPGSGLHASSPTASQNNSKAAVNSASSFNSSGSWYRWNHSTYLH
Kind of assay: SEC. Background: In gel filtration, larger molecules generally elute earlier.

The results in this text go back to article PMC9419707 (Nature, 2022).

B1: Strep2SUMO–OCA-B (natural protein, UniProt Q16633 1-256, looked up)
chain: MLWQKPTAPEQAPAPARPYQGVRVKEPVKELLRRKRGHASSGAAPAPTAVVLPHQPLATYTTVGPSCLDMEGSVSAVTEEAALCAGWLSQPTPATLQPLAPWTPYTEYVPHEAVSCPYSADMYVQPVCPSYTVVGPSSVLTYASPPLITNVTTRSSATPAVGPPLEGPEHQAPLTYFPWPQPLSTLPTSTLQYQPPAPALPGPQFVQLPISIPEPVLQDMEDPRRAASSLTIDKLLLEEEDSDAYALNHTLSVEGF
With B1, the binding result was “binds”.
